Reference: patent publication US20230189818A1, “RNA-BASED CONTROL OF BOTRYTIS” (priority 2021, published 2023)

B1: GS730: dsRNA trigger targeting B. cinerea Bcsec15 (XM_024692064.1); trigger SEQ ID NO 19, RNA 31, reverse complement 43 (nucleic acid, listed as Botrytis cinerea)
sense: UCAACGCAGUCUCCAAAGCUUUGGAUGAAUUCGAUAACCCGGAUGUUAUUCUGCAAACCAAGAAUGUGAUAGCAUUGUUCAUCCAAACAAUGGAGGGUUGGGGAUAUUCAGUUGCCAUAUUAGAUGCUUAUGUGCUUAAGCUUUUCUAUAGAUAUGCUGAUUUGUUAAAACGGAAAUUCAGCACAGAUUUUCAACAGAUUGUGUCUACCGAUGAAUACAUGCCUAUGCCUGUCAAUAGCGAAGAAGACUUUGAUAAAAUCAUUCAAGUCAGUUGGUAUGUUCCGGACAGACCGAAAGAAGAAUACACAUUCCCCGGUGUAUUACCAUUCUCCCAGAUGUACCCAAUGUGCUGUAUAGAUAUCAGAAAUUUCCUGAAUCGAUUCUACUUCAUAAUGGAUGAUCAUUUUCAACAGCCAAACAUUAUUGAUGAGACACUUAAGAAGUCGAUAGAUGAGCUUCUGUCUGAGGAUAUUUGUGA
antisense: UCACAAAUAUCCUCAGACAGAAGCUCAUCUAUCGACUUCUUAAGUGUCUCAUCAAUAAUGUUUGGCUGUUGAAAAUGAUCAUCCAUUAUGAAGUAGAAUCGAUUCAGGAAAUUUCUGAUAUCUAUACAGCACAUUGGGUACAUCUGGGAGAAUGGUAAUACACCGGGGAAUGUGUAUUCUUCUUUCGGUCUGUCCGGAACAUACCAACUGACUUGAAUGAUUUUAUCAAAGUCUUCUUCGCUAUUGACAGGCAUAGGCAUGUAUUCAUCGGUAGACACAAUCUGUUGAAAAUCUGUGCUGAAUUUCCGUUUUAACAAAUCAGCAUAUCUAUAGAAAAGCUUAAGCACAUAAGCAUCUAAUAUGGCAACUGAAUAUCCCCAACCCUCCAUUGUUUGGAUGAACAAUGCUAUCACAUUCUUGGUUUGCAGAAUAACAUCCGGGUUAUCGAAUUCAUCCAAAGCUUUGGAGACUGCGUUGA
B2: GS2303: dsRNA trigger targeting B. cinerea Bcded1 (XM_001550339.2); trigger SEQ ID NO 24, RNA 36, reverse complement 48 (nucleic acid, listed as Botrytis cinerea)
sense: GGGCUAUAUAAGCUUUCAUCUAGGUUUUCCAAGAAACGCAUUACGAUAGACAUGUUCUCCAAAAAUCUUACUGGUCCUGCUUUCAGCAUUUCCAUGGAUCAUGAAGUCCUCCACUAUGGAAGAUUUGCAAAAUAUUUUCGACAUUGCAUUUUGCUGCAUUUCGCAUUUCUAGAUAGAAAAAAAGUGGGAUUCAUAUUCUCGAUAUUUUCUUCGUUGUCUUUUAUUCACAAGACACAUGGCAAGGGAGGAUACCAUUUGAGAGCUUGAAUUGAAGGCUUUCCUCUUACUUUUUUUAUUUUUCACAUCAUCUACGAGUGGGCGUCUUUUACGAUCAAAUCGAUAUACGACAGUGGCACAAAAUAGAAUAGGCAUUUCUCUUCUUAAAAAAGAUUUAAGGGAAGAGUUGGUGCUUGUUCUCUAUAACGCUGAUGGCAUUCGGAAGUGCUCCUGUCCAUUCAGGCUGAGACUGAGACCCAAAAUGUUGGCAGGUACGGCAGAAAGAAGUCUGCUUCAUAUGAUUGAUGGAGGAAGAAAGAAAUAUGGAAUGCGAUGGAUGAGUAAUUACUUUAAAUGAAUAUGAAAA
antisense: UUUUCAUAUUCAUUUAAAGUAAUUACUCAUCCAUCGCAUUCCAUAUUUCUUUCUUCCUCCAUCAAUCAUAUGAAGCAGACUUCUUUCUGCCGUACCUGCCAACAUUUUGGGUCUCAGUCUCAGCCUGAAUGGACAGGAGCACUUCCGAAUGCCAUCAGCGUUAUAGAGAACAAGCACCAACUCUUCCCUUAAAUCUUUUUUAAGAAGAGAAAUGCCUAUUCUAUUUUGUGCCACUGUCGUAUAUCGAUUUGAUCGUAAAAGACGCCCACUCGUAGAUGAUGUGAAAAAUAAAAAAAGUAAGAGGAAAGCCUUCAAUUCAAGCUCUCAAAUGGUAUCCUCCCUUGCCAUGUGUCUUGUGAAUAAAAGACAACGAAGAAAAUAUCGAGAAUAUGAAUCCCACUUUUUUUCUAUCUAGAAAUGCGAAAUGCAGCAAAAUGCAAUGUCGAAAAUAUUUUGCAAAUCUUCCAUAGUGGAGGACUUCAUGAUCCAUGGAAAUGCUGAAAGCAGGACCAGUAAGAUUUUUGGAGAACAUGUCUAUCGUAAUGCGUUUCUUGGAAAACCUAGAUGAAAGCUUAUAUAGCCC
B3: GS2280: dsRNA trigger targeting B. cinerea Bcmcm4 (XM_024696090.1); trigger SEQ ID NO 21, RNA 33, reverse complement 45 (nucleic acid, listed as Botrytis cinerea)
sense: AAUGUCCUCGUCCGGUUUGUAAAUCUCCAAACUCCAUGCAGAUUGUACACAACAGGUCUGGAUUCAUGGAUAAGCAAGUUAUCAAGCUUCAAGAAACUCCAGAUUCCGUUCCUGCUGGUCAAACACCACAUUCCGUCUCGAUGUGUGCAUAUGAUGAGUUGGUGGAUCUGUGCAAAGCUGGUGACAGAGUUGAGAUUACUGGUAUCUUCAAAGCUAGUCCAGUUCGUGUCAAUCCUCGCCAAAGAACUCUCAAAAGCAUUUAUAAAACGUACAUCGACGUUUUACACAUUCAAAAGGUUGACAAGAAAAGAAUGGGAAUUGAUGCUUCGACCGUUGAGCAAGAAAUAUCCGAUCAGUUGACAGGCAACAUUGAAGAAACUAGAAAGGUUUCUGAAGAGGAGGAAGAAAAAAUCAGAGAAACCGCUGCAAGACCCGAUAUCUACGAACUUCUAUCUCGAUCCCUCGCACCUAGUAUUUUUGAGAUGGACGAUGUUAAGAAGGGUAUCUUGCUUCAAUUAUUUGGUGGAACUAACAAGUCUUUCGAAAAAGGAGGAAGUCCAAAAUACAGAGGAGAUAUCAAUAUUCUAUUGU
antisense: ACAAUAGAAUAUUGAUAUCUCCUCUGUAUUUUGGACUUCCUCCUUUUUCGAAAGACUUGUUAGUUCCACCAAAUAAUUGAAGCAAGAUACCCUUCUUAACAUCGUCCAUCUCAAAAAUACUAGGUGCGAGGGAUCGAGAUAGAAGUUCGUAGAUAUCGGGUCUUGCAGCGGUUUCUCUGAUUUUUUCUUCCUCCUCUUCAGAAACCUUUCUAGUUUCUUCAAUGUUGCCUGUCAACUGAUCGGAUAUUUCUUGCUCAACGGUCGAAGCAUCAAUUCCCAUUCUUUUCUUGUCAACCUUUUGAAUGUGUAAAACGUCGAUGUACGUUUUAUAAAUGCUUUUGAGAGUUCUUUGGCGAGGAUUGACACGAACUGGACUAGCUUUGAAGAUACCAGUAAUCUCAACUCUGUCACCAGCUUUGCACAGAUCCACCAACUCAUCAUAUGCACACAUCGAGACGGAAUGUGGUGUUUGACCAGCAGGAACGGAAUCUGGAGUUUCUUGAAGCUUGAUAACUUGCUUAUCCAUGAAUCCAGACCUGUUGUGUACAAUCUGCAUGGAGUUUGGAGAUUUACAAACCGGACGAGGACAUU
B4: GS349: dsRNA trigger targeting B. cinerea CDC42 (XM_001545642.2); trigger SEQ ID NO 14, RNA 26, reverse complement 38 (nucleic acid, listed as Botrytis cinerea)
sense: GUUGUCUUGUCUCGCUCAAGCUUGUCCUGUCUGGUCACUUUUCUUUCUGCCUGAUAAUCCAGACCUCGAAAAUAACCAAAAGAUUGGAAAUCGUUUGCUCAUCUUGCAUGCAUUAUUACUUUCCUGGAUCAAUCUCAUUCAACUCGUUCUCGUGCAUUUCAUUCAACCUCAACCCCUACUUUCAGUCAAUUCAAUUUAAUUCAAUCAUUCAAAUCUUUCAUUUCGCACACUUCACAUUCAACCAUCCUCUCUCAAUCAAAUAUCACCACCUCUCUUAUCGAACGUCAUUUUGCAUACAAUCAAUUCCUACAGACCGAGCGCAACUCGAUACAACCAUCGAAUAACUUCUCACACUUGCUUGUUGAAUUGAUUACUGAAGAAAGUGGAUUUCAAAGACCGAUUUUCCCCCUAGAUAUUCAAGAACGGCUUAUUCUUGUCUCGAGACAAAAC
antisense: GUUUUGUCUCGAGACAAGAAUAAGCCGUUCUUGAAUAUCUAGGGGGAAAAUCGGUCUUUGAAAUCCACUUUCUUCAGUAAUCAAUUCAACAAGCAAGUGUGAGAAGUUAUUCGAUGGUUGUAUCGAGUUGCGCUCGGUCUGUAGGAAUUGAUUGUAUGCAAAAUGACGUUCGAUAAGAGAGGUGGUGAUAUUUGAUUGAGAGAGGAUGGUUGAAUGUGAAGUGUGCGAAAUGAAAGAUUUGAAUGAUUGAAUUAAAUUGAAUUGACUGAAAGUAGGGGUUGAGGUUGAAUGAAAUGCACGAGAACGAGUUGAAUGAGAUUGAUCCAGGAAAGUAAUAAUGCAUGCAAGAUGAGCAAACGAUUUCCAAUCUUUUGGUUAUUUUCGAGGUCUGGAUUAUCAGGCAGAAAGAAAAGUGACCAGACAGGACAAGCUUGAGCGAGACAAGACAAC

Assays:
[1] = system: Botrytis cinerea isolate (B05.10); experiment: Detached leaf assay (tomato leaflets, lesion size); type: in vivo; conditions: five days post inoculation, vs untreated inoculated control
Summary of the method: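 Tomato (Brandywine) detached lateral leaflets were sprayed with treatment in 0.03% Silwet L-77 24 h before inoculation. Two 10 μL drops of 1×10^5 conidia/mL in 7% grape juice were applied per leaflet, which was then incubated at 23 °C, ~75% RH, 12/12 light. Lesion diameter was measured at 5 DPI against the untreated inoculated control, ten replicates.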

B. cinerea = experiment: Open-air field trial on snap bean (Example 4.3, AUDPC of % disease severity); type: in vivo, Botrytis cinerea; conditions: Switch 525 g ai/ha, GS349 20 and 40, GS2280 10 and 40, GS2303 10, 20 and 40, GS2297 20 g ai/ha, FIG. 9
Experimental: RNAi compositions, each containing a dsRNA comprising a trigger sequence (GS349, GS2280, GS2303, or GS2297) described herein were evaluated for ability to control botrytis on snap bean in open-air filed trials. All test samples were formulated with RO water, propylene glycol, a linear alcohol ethoxylate, a lignosulfanate, sodium citrate dihydate, a polyacrylic acid polymer, two biocide compositions, anhydrous citric acid, and an antifoam, all of which are readily commercially available. Formulation samples were tank mixed with a standard adjuvant, the non-ionic surfactant, Activator 90 0.125%v/v. Compositions were tested at concentrations of 10, g ai/ha, 20 g ai/ha, and 40 g ai/ha. Positive controls were a chemical standard, Switch 525 g ai/ha and a biological standard, Double Nickel LC 9.4 I/ha, both of which were also tank mixed with Activator 90 0.125% v/v. As above, an untreated check was used as a negative control.
Compositions were applied to snap bean plants using a small plot sprayer delivering 50 gallons of water per acre. A total of three applications were used for each sample and positive control. Disease state was evaluated beginning 8 days after the first application and ending 37 days after the third and final application. Percent Disease Severity was assessed and AUDPC was calculated in the same manner as noted in Example 4.1.

Row | Molecule | Average % Reduction in Lesion Size ([1]; 30 ppm) | Average % Reduction in Lesion Size ([1]; 50 ppm) | Disease state compared to treatment with the chemical standard (AUDPC) (B. cinerea)
1 | B1 | 16.38% | 25.11% | –
2 | B2 | 43.06% | 26.55% | no significant difference
3 | B3 | 32.13% | 24.08% | no significant difference
4 | B4 | 32.99% | 31.80% | no significant difference
